Data taken from article PMC12049551, “Labelizer: systematic selection of protein residues for covalent fluorophore labeling” (Nature Communications, 2025).
Substitutions are numbered along the chain they refer to. Names may count otherwise. Like-named read-outs stand apart in the source and are kept apart here.

B1: PBP (S3C-I76G-P86C): double-cysteine variant of E. coli phosphate binding protein PBP with additional I76G mutation (protein, UniProt P0AG82 26-346, looked up, variant S3C I76G P86C)
Phosphate-binding protein PstS: EACLTGAGATFPAPVYAKWADTYQKETGNKVNYQGIGSSGGVKQIIANTVDFGASDAPLSDEKLAQEGLFQFPTVGGGVVLAVNICGLKSGELVLDGKTLGDIYLGKIKKWDDEAIAKLNPGLKLPSQNIAVVRRADGSGTSFVFTSYLAKVNEEWKNNVGTGSTVKWPIGLGGKGNDGIAAFVQRLPGAIGYVEYAYAKQNNLAYTKLISADGKPVSPTEENFANAAKGADWSKTFAQDLTNQKGEDAWPITSTTFILIHKDQKKPEQGTEVLKFFDWAYKTGAKQANDLDYASLPDSVVEQVRAAWKTNIKDSSGKPLY
B2: wild-type: wild-type E. coli phosphate binding protein PBP (phoS gene) (protein, UniProt P0AG82 26-346, looked up)
Phosphate-binding protein PstS: B1 Phosphate-binding protein PstS with C3S, G76I, C86P
B3: PBP (I76G): cysteine-less PBP variant with only the I76G mutation (protein, UniProt P0AG82 26-346, looked up, variant I76G)
Phosphate-binding protein PstS: B1 Phosphate-binding protein PstS with C3S, C86P

Legend:
[1] = Isothermal titration calorimetry (ITC) of PBP variants with inorganic phosphate; format: binding, E. coli; conditions: 25 °C, unlabeled protein, mean ± SD from n = 2 protein preparations
Method: Protein from a diluted solution was concentrated to ~ 30 µM using a Viva Spin 6 concentrator with a 10 kDa MWCO. The filtrate was used to prepare the phosphate solution at 450 µM. The reaction cell was filled with the protein solution and titrated in 19 steps of 2 µl each of phosphate solution in 160 s intervals. A baseline control was obtained from measurements made with protein-free filtrate in the reaction cell, and this baseline was subtracted from the experimental thermograms. Data were fitted to a single binding site model using the Setup MicroCal PEAQ-ITC Analysis Software provided by the manufacturer.

[2] = parameters: method as in PMID 26199994; conditions: cited from earlier work

Row | Molecule | Kd [1] | Kd ([2]; wild-type affinity for inorganic phosphate) | reduction of affinity for inorganic phosphate compared to wild-type ([2]; I76G mutation)
1 | B1 | 10 ± 5 µM | – | –
2 | B2 | – | 0.07 µM | –
3 | B3 | 19 ± 6 µM | – | ~200 fold
